Measurements reported in patent US20030017619A1.

Molecular target: IgG class antibody in the serum of a patient with IgA nephropathy which showed positive in example 1
Test: inhibition ELISA: serum pre-incubated with 1 µg/ml peptide solution (1:1), then added to immobilized hinge peptide-BSA; anti-human IgG, absorbancy at 490 nm

| difference in the absorption between the added group and the blank solution | Binder |
| --- | --- |
| > 10% | PSPST [synthetic peptide Pro Ser Pro Ser Thr] |
| > 10% | TPPTP [synthetic peptide Thr Pro Pro Thr Pro] |
| > 10% | PTPSP [synthetic peptide Pro Thr Pro Ser Pro] |
| > 10% | PVPST [synthetic peptide Pro Val Pro Ser Thr] |
| > 10% | PSPSC [synthetic peptide Pro Ser Pro Ser Cys] |
| > 10% | PSTPP [synthetic peptide Pro Ser Thr Pro Pro] |
